B1: 375_E10 (antibody, V domains shown)
VH: EVQLLESGGGLVQPGGSLRLSCAASGFTFSSYSMNWVRQAPGKGLEWVSGINYNGGYTSYADSVKGRFTISRDNSKNTLYLQMNSLRAEDTAVYYCARGANWHDTALDYWGQGTLVTVSS
VL: DIQMTQSPSSLSASVGDRVTITCRASQSILSYLNWYQQKPGKAPKLVIYAATSRASGVPSRFSGSGSGTDFTLTISSLQPEDFATYYCQQSYDNPLTFGGGTKVEIK
notes: Group III
B2: 367_D03 (antibody, V domains shown)
VH: B1 VH with S30D, G50S, S59G, A106H
VL: B1 VL with L30I, S31T, V47L, N94T
notes: Group III
B3: 367_B01 (antibody, V domains shown)
VH: B1 VH with S49A, T58K, S59G
VL: B1 VL with L30S, L33V, D93S, N94T
notes: Group III
B4: 367_B12 (antibody, V domains shown)
VH: B1 VH with S33G, N35H, S49A, G50S, T58K, A106H
VL: B1 VL with L33V, R54L, N94T
notes: Group III
B5: 367_B04 (antibody, V domains shown)
VH: B1 VH with S30D, G55S, T58K, A106H
VL: B1 VL with V47L, D93E, N94L
notes: Group III
B6: 367_A12 (antibody, V domains shown)
VH: B1 VH with S33G, G55S, A106H
VL: B1 VL with V47L, R54L, A55H, D93N
notes: Group III
B7: 367_C07 (antibody, V domains shown)
VH: B1 VH with G50S, G55S, S59G, A106H
VL: B1 VL with S31T, L33V, V47L, D93N, N94L
notes: Group III
B8: 367_C10 (antibody, V domains shown)
VH: B1 VH with S30D
VL: B1 VL with L30V, L33V, V47L, A51V, D93E, N94T
notes: Group III
B9: 367_A10 (antibody, V domains shown)
VH: B1 VH with S33G, S49A, G55S, A106H
VL: B1 VL with L30I, S31T, L33V, V47L, R54L, N94L
notes: Group III
B10: 367_D06 (antibody, V domains shown)
VH: B1 VH with S30D, S49A, A106H
VL: B1 VL with L30S, S31T, R54L, D93N, N94S
notes: Group III
B11: 374_F02 (antibody, V domains shown)
VH: B1 VH with S30D, S49A, G50N, G55S, G99S
VL: B1 VL with L30V, V47L, T52S, R54L, A55Q, D93E, N94L
notes: VH/VL only
B12: 376_F04 (antibody, V domains shown)
VH: B1 VH with S30D, G50N, G55S, S59G, G99S
VL: not shown
notes: VH/VL only
B13: 375_D04 (antibody, V domains shown)
VH: B1 VH with S30D, S31D, Y32S, N35H, G50N, S59G, R98K, G99S
VL: B1 VL with L33V, D93E, N94L
notes: VH/VL only
B14: 376_F03 (antibody, V domains shown)
VH: B1 VH with S30D, S33G, S49A, G50N, S59G, G99S
VL: B1 VL with L30I, S31T, L33V, A51T, R54L, D93S, N94S
notes: VH/VL only
B15: 376_G09 (antibody, V domains shown)
VH: B1 VH with S30D, G55S, T58K, S59G, G99S
VL: B1 VL with L30S, S31Y, V47L, A51V
notes: VH/VL only
B16: 376_E12 (antibody, V domains shown)
VH: B1 VH with S49A, T58K, G99S, N101T, A106H
VL: not shown
notes: VH/VL only
B17: 376_F12 (antibody, V domains shown)
VH: B1 VH with S30D, S31D, S49A, T58K, G99S, N101T, A106H
VL: not shown
notes: VH/VL only
B18: 376_H09 (antibody, V domains shown)
VH: B1 VH with S31D, S49A, G50N, S59G, G99S
VL: B1 VL with L30I, S31T, A50Y, A51V, T52S, S53N, R54L, A55P, N94S
notes: VH/VL only
B19: 376_H10 (antibody, V domains shown)
VH: B1 VH with S30D, G55S, T58K, G99S
VL: B1 VL with S31T, A55H, N94S
notes: VH/VL only
B20: 376_E08 (antibody, V domains shown)
VH: B1 VH with S31D, S33G, S49A, G99S
VL: B1 VL with L30V, L33V, N94S
notes: VH/VL only
B21: 376_E03 (antibody, V domains shown)
VH: B1 VH with S33G, S49A, G50N, S59G, G99S
VL: B1 VL with L33V, R54L, N94L
notes: VH/VL only
B22: 376_G08 (antibody, V domains shown)
VH: B1 VH with S30D, S33G, S49A, G50N, G99S
VL: B1 VL with L33V, N94T
notes: VH/VL only

The text below walks through data of patent publication US20210380703A1 (RIGEL PHARMACEUTICALS, published 2021).

Residue numbers refer to the chain shown, from its start.
Further: test concentration or dose not given here.

The target of the first assay is T1, human ACVR2A (human, UniProt P27037 20-135, limits assumed).
T1 construct: coated antigen of the initial ELISA; also called activin receptor, type II A
The assay can be described thus: ELISA. The essentials: (§1)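 Binding signal was read by ELISA after ACVR2A-specific monoclonal antibodies were tested against human ACVR2A and mouse ACVR2A, with human Fc as the negative control.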
T1 sequence (P27037 20-135 limits assumed): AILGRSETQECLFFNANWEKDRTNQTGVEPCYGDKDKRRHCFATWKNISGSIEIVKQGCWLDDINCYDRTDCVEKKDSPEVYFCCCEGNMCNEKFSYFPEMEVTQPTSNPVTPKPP
On to B1, for which the optical density was 3.69 OD.
B2 gave an optical density of 2.59 OD.
On to B3, for which the optical density was found to be 2.84 OD.
Same read-out and setting: the same measure for B4: 3.02 OD; for B5: 2.66 OD.
Molecule B6 came in with an optical density of 2.44 OD.
In turn, B7 yielded an optical density of 2.47 OD.
Regarding B8, the optical density was 2.53 OD.
Molecule B9 returned an optical density of 1.89 OD.
In turn, B10 returned an optical density of 2.04 OD.

A further assay deals with T2, mouse ACVR2A (mouse, UniProt P27038 20-135, limits assumed).
T2 construct: coated antigen of the initial ELISA
The experiment in a line: ELISA. The essentials:
as §1
T2 sequence (P27038 20-135 limits assumed): as the sequence (P27037 20-135 limits assumed) above, with K20R, V73I counted along it
B1: the optical density was 3.79 OD.
Still for that read-out and setting: the same measure for B2: 2.45 OD; for B3: 2.91 OD; for B4: 3.03 OD.
B5 had an optical density of 3.1 OD.
Same read-out and setting: the same measure for B6: 2.42 OD; for B7: 2.52 OD; for B8: 2.61 OD.
With B9, the optical density came to 2.16 OD.
For the molecule B10, the optical density is 2.35 OD.

For a further assay, the target named is human ACVR2A (human, UniProt P27037 20-135, limits assumed). The experiment in a line: ELISA. The essentials: as §1
Target sequence in this assay (P27037 20-135 limits assumed): as the sequence (P27037 20-135 limits assumed) above
Molecule B11 displayed an optical density of 3.56 OD.
Turning to B12, the optical density was found to be 3.07 OD.
Turning to B13, the optical density came out at 3.69 OD.
As to B14, the optical density was 3.29 OD.
Molecule B15 had an optical density of 3.68 OD.
Molecule B16 returned an optical density of 3.61 OD.
B17 registered an optical density of 3.13 OD.
With B18, the optical density was 3.32 OD.
In the case of B19, the optical density came out at 3.28 OD.
On the same count and under the same terms, the same measure for B20: 3.64 OD; for B21: 3.79 OD; for B22: 3.69 OD.

The next assay concerns the target mouse ACVR2A (mouse, UniProt P27038 20-135, limits assumed). The experiment in a line: ELISA. The procedure, abridged: as §1
Target sequence in this assay (P27038 20-135 limits assumed): as the sequence (P27037 20-135 limits assumed) above, with K20R, V73I counted along it
B11 registered an optical density of 3.59 OD.
On to B12, for which the optical density turned out to be 3.29 OD.
The same measure, in the same setting: the same measure for B13: 3.7 OD; for B14: 3.47 OD.
Still for that read-out and setting: the same measure for B15: 3.65 OD; for B16: 3.32 OD; for B17: 3.25 OD.
B18: the optical density was 3.3 OD.
In turn, B19 yielded an optical density of 3.29 OD.
On the same count and under the same terms, the same measure for B20: 3.64 OD.
In turn, B21 returned an optical density of 3.74 OD.
On to B22, for which the optical density was found to be 3.64 OD.

The next assay has as its target T3, biotinylated goat anti-human kappa light chain.
T3 construct: positive control of the ELISA
The experiment in a line: ELISA, positive control. As to the method:
The binding of ACVR2A-specific monoclonal antibodies to human ACVR2A, mouse ACVR2A, biotinylated goat anti-human kappa light chain (positive control) and human Fc (negative control) were determined by ELISA.
B1 had an optical density of 3.29 OD.
Molecule B2 yielded an optical density of 3.46 OD.
As to B3, the optical density came to 3.67 OD.
B4 gave an optical density of 3.75 OD.
In turn, B5 returned an optical density of 3.34 OD.
The molecule B6 gave an optical density of 3.65 OD.
The molecule B7 showed an optical density of 3.41 OD.
The molecule B8 showed an optical density of 3.39 OD.
Molecule B9 had an optical density of 3.39 OD.
As to B10, the optical density worked out at 3.25 OD.

Another assay concerns the target T4, biotinylated goat anti-human kappa light chain.
T4 construct: Positive control of the ELISA
The experiment in a line: ELISA; positive control. The procedure, abridged:
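ELISA measured binding of ACVR2A-specific monoclonal antibodies to human and mouse ACVR2A. Biotinylated goat anti-human kappa light chain served as positive control and human Fc as negative control.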
B11: the optical density came out at 3.16 OD.
B12 came in with an optical density of 3.42 OD.
On the same count and under the same terms, the same measure for B13: 3.17 OD.
As to B14, the optical density was found to be 3.44 OD.
B15: the optical density amounted to 3.45 OD.
As for B16, the optical density was 3.42 OD.
The same measure, in the same setting: the same measure for B17: 3.44 OD; for B18: 3.46 OD.
Still for that read-out and setting: the same measure for B19: 3.54 OD; for B20: 3.47 OD; for B21: 3.42 OD.
B22 registered an optical density of 3.47 OD.
